# Literature values as cited in PMC3405059.
# pKd: −log10 of the molar value.
# Target: MSPβ beta chain (Homo sapiens) (UniProt P26927)
# Assay: SPR
# Chain of UniProt P26927 (P26927 484-711): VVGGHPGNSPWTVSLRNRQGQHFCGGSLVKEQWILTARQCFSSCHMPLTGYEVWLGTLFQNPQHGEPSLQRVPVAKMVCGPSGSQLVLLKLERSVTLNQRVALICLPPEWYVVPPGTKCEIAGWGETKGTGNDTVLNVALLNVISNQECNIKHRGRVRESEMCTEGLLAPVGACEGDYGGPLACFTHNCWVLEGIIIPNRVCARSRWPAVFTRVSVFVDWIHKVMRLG
substance,measurement,value
RON ECD (from UniProt Q04912),pKd,7.89
